Molecular target: Tim50^IMS (purified, recombinant) (S. cerevisiae) (UniProt Q02776)
Assay: cross-linking

Chain of UniProt Q02776 (Q02776 133-476): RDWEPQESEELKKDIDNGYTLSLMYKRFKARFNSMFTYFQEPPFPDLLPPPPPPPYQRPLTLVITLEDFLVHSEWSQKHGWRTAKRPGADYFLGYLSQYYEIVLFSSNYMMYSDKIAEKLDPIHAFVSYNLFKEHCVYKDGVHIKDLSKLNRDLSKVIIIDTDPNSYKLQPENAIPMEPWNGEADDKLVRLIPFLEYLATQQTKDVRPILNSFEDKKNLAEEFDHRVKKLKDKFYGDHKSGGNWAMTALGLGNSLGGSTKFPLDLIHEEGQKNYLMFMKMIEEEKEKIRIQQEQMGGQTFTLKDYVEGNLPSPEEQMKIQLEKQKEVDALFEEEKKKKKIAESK

- fold cross-linking with TOCL over without TOCL: 6 fold
Substance: [35S]Tim23(F114C) (from UniProt P32897 1-222) (natural protein)
